Assay: soluble on expression in E. coli; label from the status in PepcDB or PDB records
For “QKKTVQVYRIIAKNTIEERVCQVQAEKQELVSKTLVEDVNFFESLTNEELLRLFE”, the “soluble on expression in E. coli” value was “not soluble”.
With “QKVTSLTACLVDQSLRLDCRHENTSSSPIQYEFSLTRETKKHVLFGTVGVPEHTYRSRTNFTSKYNMKVLYLSAFTSKDEGTYTCALHHSGHSPPISSQNVTVLRDKLVKCEGISLLAQNTSWLLLLLLSLSLLQATDFMSL” the “soluble on expression in E. coli” value was “not soluble”.
With “QLPPGTFIPYGLSLESATGVNFLTPTSFWKQTRMHASKRKLLRNMELLIIDEVSMLRADTLDLIDFVLRRVRSNPRSFGGVQVLFIGDLMQLPPVVKPHEWE” the “soluble on expression in E. coli” value was “not soluble”.
For “QMFWPLQPVQLSLANVFLALANYLDAKAKLFHPVTNLAPQPMRIEAARLNAATVTALNACKATLLTRSKRGHVDGPSDRFLNIYFIAQDIHERVSSSHYRYQDLATEFERSDVLFRFKYLLETQAQACRDIAQAIQLGNEYTHTDESILALAELQNSLAYLEEQQQGHWKRLLMQLTYLFNNLATVEKQLNNINNPDAERLEEDTLADTNPHTLKAMWQRISANLHKDSMLFRH”, the “soluble on expression in E. coli” value was “not soluble”.
For “QPEDLAYVIFTSGSTGQPKGVAIEHRAARTTIDDINQRFEITDTDVVLGLSALSFDLSVWDIFGGLGAGATVVLPEEDRLRDPSYWLDLCDRHEITVWNSAPPLLEMLVDYAEIDPEAAAHALRNLRMVMLSGDWIPVTLPRRLKELAPNATVMSLGGATEASIWSICHRTSDADEHGPS”, the “soluble on expression in E. coli” value was “not soluble”.
In the case of “QQVRQSPQSLTVWEGETAILNCSYEDSTFNYFPWYQQFPGEGPALLISIRSVSDKKEDGRFTIFFNKREKKLSLHITDSQPGDSATYFCAARYQGGRALIFGTGTTVSVSP”, the “soluble on expression in E. coli” value is reported as “soluble”.
With “QRKGVLIILDGLGDRPIKELGGKTPLEYANTPTMDYLAKIGILGQQDPIKPGQPAGSDTAHLSIFGYDPYKSYRGRGYFEALGVGLELDEDDLAFRVNFATLENGVITDRRAGRISTEEAHELAKAIQENVDIPVDFIFKGATGHRAVLVLKGMAEGYKVGENDPHEAGKPPHPFTWEDEASKKVAEILEEFVKKAHEVLDKHPINEKRRKEGKPVANYLLIRGAGTYPNIPMKFTEQWKVKAAAVVAVALVKGVAKAIGFDVYTPKGATGEYNTDEMAKARKAVELLKDYDFVFIHFKPTDAAGHDNNPKLKAELIERADRMIKYIVDHVDLEDVVIAITGDHSTPCEVMNHSGDPVPLLIAGGGVRADYTEKFGEREAMRGGLGRIRGHDIVPIMMDLMN” the “soluble on expression in E. coli” value was “not soluble”.
In the case of “QTVVTGKVIDSETSEPLIGVSVSTGQGASLRGVTTDMDGGFRFEVPAKSVLTFRCVGYATVTRSIGRGSQEDLGTILLDPQAIGLDEIQVIASVVPKDRMTPVPVSNIRVADIQAASLNVEFPELVKSTPSTYTTKGSGGFGDGRTNVRGFDTYNFGVLINGVPVNGMEDGKVYWSNWSGLMNQASTIQIQRGLGASKLGISSVGGTMNIITKTTDANTGGSAYVGMGNDGLHKESFSISTGMND”, the “soluble on expression in E. coli” value is reported as “not soluble”.
In the case of “QVQLQQPGSVLVRPGASVKLSCKASGFTFTSSWMHWAKQRPGQGLEWIGEIHPNSGNTHYNEKFKGKATLTVDTSSSTAYVDLSSLTSEDSAVYYCARMRYGDYYAMDNWGQGTSVTVSSAKTTAPPVYPLAPVCGDTTGSSVTLGCLVKGYFPESVTLLWNSGSLSSGVHTFPAVLQSDLYTLSSSVTVTSSTWPSQSITCNVAHPASSTKVDKKIEPRG”, the “soluble on expression in E. coli” value is reported as “soluble”.
For “QVQLQQSGPEDVKPGASVKISCKASGYTFTDYYMNWVKQSPGKGLEWIGDINPNNGGTSYNQKFKGRATLTVDKSSSTAYMELRSLTSEDSSVYYCESQSGAYWGQGTTVTVSA”, the “soluble on expression in E. coli” value was “soluble”.
For “QVQLVQSGAEVRKPGASVKVSCKASGDTFSSYAISWVRQAPGQGLEWMGGIIPIFGTANYAQAFQGRVTITANESTSTAYMELSSLRSEDTAIYYCARDNPTLLGSDYWGAGTLVTVSSASTKGPSVFPLAPCSRSTSGGTAALGCLVKDYFPEPVTVSWNSGALTSGVHTFPAVLQSSGLYSLSSVVTVPSSSLGTQTYICNVNHKPSNTKVDKRV”, the “soluble on expression in E. coli” value was “soluble”.
With “RAATQVGATTMDRPEWVAVHPDKKHVFCTLTNNKNRGKEGQPVGGPNPREKNNYGQIVRWMPAQGDHTSDVFAWDLYLIAGNPTVHKGTLYAGSENISADNMFNSPDGIGFDTAGRLWIQTDGNYSNQGDFAGQGNNQMLCGDPITGEVKRFLTGPIACEITGLTFSPDHKTMFVG” the “soluble on expression in E. coli” value was “not soluble”.
For “RAIPIKQSFLLKRSGNSLNKEWKKKYVTLSSNGFLLYHPSINDYIHSTHGKEMDLLRTTVKVPGKRPPRAISAFGPSASGSAGQAEEENFEFLIVSSTGQTWHFEAASFEERDAWVQAIESQILASLQ”, the “soluble on expression in E. coli” value was “soluble”.
In the case of “RDTVVTLLLDNSGSMRGRPISIAAICADVLARTLERCNVKVEILGFTTRAWKGGLAREAWLNEGRPQQPGRLNDLRHIIYKAADAPMRRTRQNLGLMMKEGLLKENIDGEALEWAHRRMLGRREQRKILMVISDGAPVDDSTLSVNPANYLEKHLRDVIAMVERRKQVELLAIGIGHDVTRYYQRAVTITDVEQLAGAMTEQLAALFDSDPRARARVMGMKRAS”, the “soluble on expression in E. coli” value is reported as “not soluble”.
In the case of “RGVAVYVDHVDGDIHPVTYELIGKARELAAKINHPVYAVFIGQNIKDKAEELLHYGVDEVFVYDDAALKYFRIEPYTKAFEDFINKNKPSTILVGATTVGRSLAPRIAARFRTGLTADCTILDMKENTDLVQIRPAFGGNIMAQIINPNNRPQLATVRYKVMNAPVRSEEKKGKITLCSLKDITSNIEVLKVVKKQVEEN”, the “soluble on expression in E. coli” value is reported as “not soluble”.
For “RHLVVPLNRLRDRADALRADELESTPLAAPLAARRDELGELAQALEHMAERLRLSLAQQRLLLRTLSHELRTPLARLRIAHDSELPPEQLRQRLDREIGDMQRLLEDTLDLAWMDTERPQLPTEPVLALSVWEALRDDACFESGWDPARLPCRLGVDCRVEVHLDSLAQAMENLLRNAIRHSPEDGTVSLDGEREGDFWHLRLQDQGPGVAEDQLERIFLPYQRLDDSAGEGFGLGLAIARRAIELQGGRLWASNGKPGLC”, the “soluble on expression in E. coli” value was “not soluble”.
In the case of “RHRCIGLTVETKPDWFFEREIDEALAYGTTKVELGVQNIDDRILAINNRGHTVADIARSTQLARDAGLKIVYHIMPGMYGSSFEKDLKSFDLMINDERFKPDMLKIYPTLVTQGTGLYNLWKNGKYRPYTTAETVDLIVEFMRRMPDWIRIQRIQR”, the “soluble on expression in E. coli” value is reported as “not soluble”.
In the case of “RIEEVKERFVNLNRLFQELVGDFQAKSDQLVSVIQDMEKISENIMEELKKSGTNVDQIVERVKEASSQIGETLENIRSIEKLIQNIMRIARETNILALNATIEAARAGEAGKGFMIVANEVQNLSNETNEVTKQIVEKAREILESSQRSLENLEFMANLFETVGKTLQNMVRFMENIVKLLQEVRNSLDTSKESLSEKSAEIDSATKVLEETA”, the “soluble on expression in E. coli” value is reported as “soluble”.
With “RIWRIIPDTSVIIDGRLSSRIKSGEFGSAEVIIPEAVVSELEAQANKGREIGFKGLEELSELRKLADRGDIQLKFSGVQPSLEEIKLSREGRVDALIRQTALDEGGLFVSEDRVQSLIARAKGLDVEYMHPKV” the “soluble on expression in E. coli” value was “not soluble”.
With “RKLATAAKVSAMGSLNDLFESVSDRLRDSGRLIVVDEAENLPLRALEIVRRLHDETGCGLVLSGMPRLVANLRGKHGELVQLYSRVSVALNLGESLPDDELFEIAKAALPDAVKHLLPDSVQALITVIGFNETLELVRLMGGTTYPLRQGYTKNSQSRVAYLEEIIGSEAAGRLVEAMAPCNLFIPRCETALYELRNRKIRSQFDRQTAGGTPAYEAVNDLALAHRLSDRHVWRILKQADKEAEQENLF” the “soluble on expression in E. coli” value was “not soluble”.
For “RLIRSVLCSSSAGFGQGFCSPSLRRHLSARFPRGHGNALANFSSCARSRVHAYSSASSATSVGVPVAKMRFIDIGANLLDEMYTGQYNDKPYHPPDLSAVLERAWAAGLEKLMITAGSLKEARAALELAKTDERLYCTVGCHPTRCKEFEDHPGGPEAYLQELLEVLKEGQALGKVVAVGECGLVATDYERLHFCDADTQKKYFEAQFRLAKESGLPMFLHLRAAADDFLDITGRHLGDFPRGGVVHSFDGTAEEAARVLAVPQLAIGINGCSLKTDDNLAVVGGLPLERIMLETDCPWCEIRPTHAGRKHVSAEALAGVTGAKDRKKFMPGCQVKS”, the “soluble on expression in E. coli” value was “not soluble”.
In the case of “RMALSVLASSKEELFMPLLSQEAAHPDEWAGRLKNLSVNAEHAVTASLKNAEKAAVILGAEVQNHPDYAAVYAAAQELADATGAVLGILPQAANSVGADVLNVNSGKSVVEMVNAPKQAVLLLNVEPEIDTADGAKAVAALKQAKSVMAFTPFVSETLLDVCDVLLPIAPFTETSGSFINMEGRLQSFHGVVQGFGDSRPLWKVLRVLGNLFDLKGFEYHDTAAILKDALDVESLPSKLDNRNAWTGEGVQTTSDRLVRVGGVGIYHTDSIVRRSAPLQETSHAAVPAARVNPNTLARLGLQDGQTAVAKQNGASVSVAVKADAGLPENVVHLPLHTENAALGALMDTIELAGA”, the “soluble on expression in E. coli” value is reported as “not soluble”.
For “RNDTECDLCGGDPEKKCHSCSCRVCGGKHEPNMQLLCDECNVAYHIYCLNPPLDKVPEEEYWYCPSCKTD”, the “soluble on expression in E. coli” value was “soluble”.
In the case of “RPPKWTGMDVWAAAICFNTVEAAKKNLPKPESWADLTKPVYKGQIVMPHPASSGTGYLDVSAWLQTLGEKKGWDYMDKLHANMAQYVHSGSKPCKMAAAGEYPIGISFEYRGAQLKEKGAPIDLIYPKEGLGWDLEATAIIKGTKNLEAARKLADFSVSLPAMKLYEQNYAVLAMPGV”, the “soluble on expression in E. coli” value is reported as “not soluble”.
With “RQTHYLIHSDLGFRTRGVLWISNTVDSVPKGILRAELEKIPGVEKVSYACGNPIRYLNNMSFTKDGVNVSTWEMVVDSVFFDFFEISPIPLTDEPVETFFDREKMRAARIIPEWGNMKMINAVRPDPETGIFTQGDDDNDEVKYRMVGRIPDLKYKPLNMEQSPLQIRPLYAREQPWVTLVRASDEADKSAVLAAVSDTYKRVTGAEDIEPLWAEDIILDRYKSQTNLSQ” the “soluble on expression in E. coli” value was “not soluble”.
In the case of “RRSPPADAIPKSKKVKVSHRSHSTEPGLVLTLGQGDVGQLGLGENVMERKKPALVSIPEDVVQAEAGGMHTVCLSKSGQVYSFGCNDEGALGRDTSVEGSEMVPGKVELQEKVVQVSAGDSHTAALTDDGRVFLWGSFRDNNGVIGLLEPMKKSMVPVQVQLDVPVVKVASGNDHLVMLTADGDLYTLGCGEQGQLGRVPELFANRGGRQGLERLLVPKCVMLKSRGSRGHVRFQDAFCGAYFTFAISHEGHVYGFGLSNYHQLGTPGTESCFIPQNLTSFKNSTKSWVGFSGGQHHTVCMDSEGKAYSLGRAEYGRLGLGEGAEEKSIPTLISRLPAVSSVACGASVGYAVTKDGRVFAWGMGTNYQLGTGQDEDAWSPVEMMGKQLENRVVLSVSSGGQHTVLLVKDKEQS”, the “soluble on expression in E. coli” value is reported as “soluble”.
In the case of “RSDSIMILSINPKTKKTEIVSIPRDTRAEIVGRGTTEKIAHAYAYGGPNMAVKSLEKLMNVPIDHYATIDMDGLHNMIDSIGGVDVVSNDTFTVDGVRFTKGQQTHVNGDQALKFIRSRKEEGAGGDFGRQQRQQIVLEAMANKIAS”, the “soluble on expression in E. coli” value is reported as “not soluble”.
For “RSLQLDKLVNEMTQHYENSVPEDLTVHVGDIVAAPLPTNGSWYRARVLGTLENGNLDLYFVDFGDNGDCPLKDLRALRSDFLSLPFQAIECSLARIA”, the “soluble on expression in E. coli” value was “soluble”.
For “RSSLRKKEFGSKERLLEELRCKKTVLHEVDVTLDPDTAHPHLFLYEDSKSVRLEDSRQILPDRPERFDSWPCVLGRETFTSGRHYWEVEVGDRTDWAIGVCRENVVKKGFDPMTPDNGFWAVELYGNGYWALTPLRTSLRLAGPPRRVGVFLDYDAGDISFYNMSNGSLIYTFPSISFSGPLRPFFCLWSCGKKPLTICSTANGPEKVTVIANVQDD”, the “soluble on expression in E. coli” value was “not soluble”.
With “RTQFKINSIPTVSDPYHINYDLTFSLNFASNKRNTYGTGWLIDWKGDENNPEKNDPFKVYLATNLHVIDALRNNNDYEPYNKDSNNQAFNSEEITRFFSIGKYTYPSIFSELNFIINAREAFVSIQTSTIPKTAYAAVNFVETQGEDESYTDSLSTDNKRDIYADFAVI” the “soluble on expression in E. coli” value was “not soluble”.
